Reference: patent US20220380442A1 (published 2022)

T1: Puumala virus (PUUV) glycoproteins Gn and Gc displayed on Expi293F cells (full-length M segment, plasmid … (Puumala virus))
T1 chain 1: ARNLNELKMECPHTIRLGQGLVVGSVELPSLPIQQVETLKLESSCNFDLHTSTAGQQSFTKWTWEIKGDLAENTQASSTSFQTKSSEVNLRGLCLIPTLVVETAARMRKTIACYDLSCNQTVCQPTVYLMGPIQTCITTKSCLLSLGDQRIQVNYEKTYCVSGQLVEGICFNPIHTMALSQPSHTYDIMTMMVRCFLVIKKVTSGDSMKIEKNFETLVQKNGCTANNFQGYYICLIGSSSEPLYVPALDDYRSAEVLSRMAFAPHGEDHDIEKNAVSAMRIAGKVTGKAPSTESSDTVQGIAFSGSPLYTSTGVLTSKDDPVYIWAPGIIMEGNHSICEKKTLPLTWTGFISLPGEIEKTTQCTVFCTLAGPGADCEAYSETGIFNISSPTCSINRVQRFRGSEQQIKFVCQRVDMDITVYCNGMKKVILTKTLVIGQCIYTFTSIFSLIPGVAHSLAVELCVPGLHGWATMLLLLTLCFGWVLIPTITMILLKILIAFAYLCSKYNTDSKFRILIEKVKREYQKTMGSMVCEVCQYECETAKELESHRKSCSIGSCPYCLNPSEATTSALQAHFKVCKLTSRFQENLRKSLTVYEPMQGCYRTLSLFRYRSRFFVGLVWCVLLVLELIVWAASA
T1 chain 2: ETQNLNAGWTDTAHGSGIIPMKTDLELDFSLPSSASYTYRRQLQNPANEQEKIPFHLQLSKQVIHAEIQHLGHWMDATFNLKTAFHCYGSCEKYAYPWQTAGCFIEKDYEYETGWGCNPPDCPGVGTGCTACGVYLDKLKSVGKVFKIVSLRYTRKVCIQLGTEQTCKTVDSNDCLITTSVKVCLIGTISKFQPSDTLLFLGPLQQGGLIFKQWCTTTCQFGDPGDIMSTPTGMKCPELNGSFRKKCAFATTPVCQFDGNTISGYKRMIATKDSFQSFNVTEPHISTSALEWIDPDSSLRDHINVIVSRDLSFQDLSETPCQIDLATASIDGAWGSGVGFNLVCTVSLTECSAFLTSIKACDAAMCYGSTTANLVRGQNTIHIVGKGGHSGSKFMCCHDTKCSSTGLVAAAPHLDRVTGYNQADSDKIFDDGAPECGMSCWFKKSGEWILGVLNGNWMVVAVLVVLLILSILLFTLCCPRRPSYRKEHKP


Key:
[1] = target: T1, Puumala virus (PUUV) glycoproteins Gn …; assay: flow
[2] = target: Sin Nombre virus (SNV) glycoproteins Gn and Gc displayed on the surface of Expi293F cells transfected with … (Sin Nombre virus); assay: flow

Binder	EC50 [1] [µg/mL]	EC50 [2] [µg/mL]
ANDV-69 (antibody, V domains shown) VH: QVHLQESGPGLVKPSETLSLTCAVSGYSISSGYCWGWIRQTPGKGLEWIGSIWHTGTTYYNPSLKSRVTISLDTSKNQFSLKLSSLTAADTAVYYCARAIYDSSGYSPFSGLDIWGQGTTVTISS VL: QSVLTQPPSVSAAPGQKVTISCSGSSSNIGNNYVSWYQQVPGTAPKLLFYDNNKRPSGIPYRFSGSKSGTSATLAITGLQTGDEADYYCGTWDSSLNLWVFGGGTKLTVL	0.541	
ANDV-2 (antibody, V domains shown) VH: QVTLKESGPALVKPTQTLTLTCTFSGFSLSTSGMRVSWIRQPPGKALEWLARIDWDDDKFYSTSLKTRLTISKDTSKNQVVLIMTNMDPVDTATYYCARMMVGEGTFDYWGQGTLVTVSS VL: DIQMTQFPSTLSASVGDRVTITCRASQDISSLLAWYQQKPGKAPKLLIYTASNLEGGVPSRFSGSGSGTEFTLTISSLQPDDFATYYCQQYIRYWTFGQGTKVEIK		0.011
ANDV-59 (antibody, V domains shown) VH: QVVLQESGPGLVKPSETLSLTCTVSGGSINNYYWSWIRQPPGKGLEWIGWLYYSGITTFNPSLKSRVTISIDTSKNQVSLNLRSVTAADTAVYYCARVQGSDSSGYYHLKSDWFDPWGQGIPVTVSS VL: QSVLTQPPSVSAAPGQTVTISCSGSSSNIRHNFVSWYQQLPGTAPKLVIYENNKRPSGIPDRFSGSKSGTSATLGITGLQTGDEADYYCGTWDSSLSAPHWVFGGGTRLTVL	0.123	0.0093
ANDV-5 (antibody, V domains shown) VH: QVQLLQSGAEVKKPGSSVRVSCQSSGDIYNYYGISWVRQAPGQGLEWMGGIIPVYGRPNYVQKFRGRVTFTVDKSTSTAYMELSTLRADDTAVYYCARDTARSHYFGSGNDYGMDVWGQGTTVIVSS VL: DIVMTQSPLSLPVTPGEPASISCRSSQSLLHSNGFNFVDWYLQKPGQSPQLLIYLGSTRASGVPDRFSGSGSGTDFTLEISRVEAEDVGVYYCMQALQFPRTFGQGTKLDIK	0.148	
